Test results as given in article PMC5206748, “Disruption of cell adhesion by an antibody targeting the cell-adhesive intermediate (X-dimer) of human P-cadherin” (Scientific Reports, 2017).
Substitutions are numbered along the chain they refer to. Names may count otherwise. Each block holds one binder with its values, some of them ahead of it.

Experiments:
Details in all cases: both partners purified
[1] = biological target: T1, human P-cadherin EC12 K14E (residues 1-213) (Homo sapiens, UniProt P22223, point mutant); assay: ITC; iTC200; antibody in the cell (15-30 μM), P-cadherin construct in the syringe (150-300 μM); 15 °C; one-site binding model
T1 construct: human P-cadherin, residues 1-213 with K14E; numbers count on: the mature protein; also called strand-swap dimer construct; source: E. coli Rosetta2 (DE3), purified (Ni-NTA, SUMO tag cleaved with Ulp1, SEC)

[2] = biological target: T2, human P-cadherin MEC12 K14E (additional Met + residues 1-213) (Homo sapiens, point mutant); assay: as above
T2 construct: human P-cadherin, residues 1-213 with K14E; numbers count on: the mature protein; also called monomer construct; source: E. coli Rosetta2 (DE3), purified (Ni-NTA, SUMO tag cleaved with Ulp1, SEC)

[3] = biological target: T3, human P-cadherin MEC1 (additional Met + residues 1-129) (Homo sapiens); assay: SPR; Biacore T200; MEC1 immobilised on a CM5 chip by amine coupling (~250 RU); scFv as analyte, 0.49-62.5 nM; 25 °C; 10 mM HEPES, 150 mM NaCl, 3 mM CaCl2, pH 7.5, 0.05% Tween-20; global fitting
T3 construct: numbers count on: the mature protein; source: E. coli Rosetta2 (DE3), purified (Ni-NTA, SUMO tag cleaved with Ulp1, SEC)
T3 chain: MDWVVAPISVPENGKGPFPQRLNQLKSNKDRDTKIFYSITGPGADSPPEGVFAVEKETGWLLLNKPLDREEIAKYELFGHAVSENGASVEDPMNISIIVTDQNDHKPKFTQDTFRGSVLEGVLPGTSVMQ

[4] = biological target: T4, human E-cadherin EC12 (Homo sapiens, UniProt P12830); assay: SEC; the solution left in the ITC cell (antibody 25 μM titrated with human E-cadherin EC12 250 μM at 30 °C) injected on Superose 12 10/300 GL; 0.5 mL/min; 25 °C; 10 mM HEPES, 150 mM NaCl, 3 mM CaCl2, pH 7.5
T4 construct: human E-cadherin, domains EC1-EC2; also called E-cad EC12; source: E. coli Rosetta2 (DE3), purified (Ni-NTA, SUMO tag cleaved with Ulp1, SEC)

[5] = biological target: T1, human P-cadherin EC12 K14E (residues …); assay: SPR; scFv (100 nM) captured on anti-His6-tag antibody immobilised on a CM5 chip; P-cadherin construct as analyte (1.25-20 nM strand-swap dimer, 6.25-100 nM monomer); global fitting; the paper puts the lower KD for the strand-swap dimer down to an avidity effect
[6] = biological target: T2, human P-cadherin MEC12 K14E (additional …); assay: as above
[7] = biological target: T5, human P-cadherin MEC12 (human, UniProt P22223); assay: ITC; antibodies (15-30 μM) in the cell titrated with cadherins (150-300 μM); 15 °C; one-site binding model
T5 construct: additional Met at the N-terminus of EC12; P-cadherin (cadherin-3), human, extracellular domains EC1-EC2; Fast exchange between monomer and X-dimer; also called X-dimer construct; source: E. coli Rosetta2 (DE3), SUMO fusion, Ni-NTA, SUMO cleaved with Ulp1, SEC

[8] = biological target: T6, human P-cadherin MEC1 (Homo sapiens, UniProt P22223); assay: SPR; MEC1 immobilised on a CM5 chip by amine coupling (~250 RU); antibodies as analyte 0.49-62.5 nM; 25 °C; 10 mM HEPES, 150 mM NaCl, 3 mM CaCl2, pH 7.5, 0.05% Tween-20; global fitting
T6 construct: additional Met before the N-terminus; P-cadherin (cadherin-3), human, extracellular domain EC1; source: E. coli Rosetta2 (DE3), SUMO fusion, Ni-NTA, SUMO cleaved with Ulp1, SEC

[9] = biological target: T7, human E-cadherin EC12 (Homo sapiens, UniProt P12830); assay: ITC + SEC; antibodies (25 μM) in the cell titrated with human E-cadherin EC12 (250 μM) in the syringe, 30 °C; the solution left in the cell was then run on Superose 12 in 10 mM HEPES, 150 mM NaCl, 3 mM CaCl2, pH 7.5
T7 construct: E-cadherin (cadherin-1), human, extracellular domains EC1-EC2; source: E. coli Rosetta2 (DE3), SUMO fusion, Ni-NTA, SUMO cleaved with Ulp1, SEC

[10] = biological target: T8, human P-cadherin MEC12 (additional Met + residues 1-213) (Homo sapiens); assay: ITC; iTC200; antibody in the cell (15-30 μM), P-cadherin construct in the syringe (150-300 μM); 15 °C; one-site binding model
T8 construct: numbers count on: the mature protein; also called X-dimer construct; source: E. coli Rosetta2 (DE3), purified (Ni-NTA, SUMO tag cleaved with Ulp1, SEC)

T2 sequence (chain, as listed by the source point mutant | K14E K14E): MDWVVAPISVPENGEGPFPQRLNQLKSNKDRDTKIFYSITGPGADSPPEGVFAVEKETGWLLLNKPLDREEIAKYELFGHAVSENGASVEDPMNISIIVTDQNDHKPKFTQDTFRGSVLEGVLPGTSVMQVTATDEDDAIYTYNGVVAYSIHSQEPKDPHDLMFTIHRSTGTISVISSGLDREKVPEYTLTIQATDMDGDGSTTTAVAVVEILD

stoichiometry N [1]: 0.71
stoichiometry N [2]: 0.74
Kd [3]: 8.7 nM
koff [3]: 0.026 s⁻¹
kon [3]: 3e+06 M⁻¹ s⁻¹
binding result [4]: no binding
Kd [5]: 0.24 nM
koff [5]: 0.00015 s⁻¹
kon [5]: 620000 M⁻¹ s⁻¹
Kd [6]: 63 nM
koff [6]: 0.03 s⁻¹
kon [6]: 480000 M⁻¹ s⁻¹
B1: TSP7 single-chain Fv (anti-human P-cadherin antibody) (scFv, V domains shown)
VH: QVQLQESGPELVKPGASVKMSCKASGYSFTAYNMHWVKQSHGKSLEWIGFIDPYSGIITYNQTFKGKATLTVDKSSSTAYMQLNSLTSEDSAVYYCARRGYYDGGFDYWGQGTTLTVSS
VL: DIQMTQTTSSLSASLGDRVTISCRASQDITNYLNWYQQKPDGTVKLLIYYTSRLHSGVPSRFSGSGSGTDYSLTISNLEQEDIATYFCQQDSKHPRTFGGGTKLEIK
notes: VH of TSP7; flexible (Gly4-Ser)3 peptide linker between VH and VL; VL of TSP7; Construct pelB-VH-GS-linker-VL-His6 in pRA2; Residue numbers run through the whole scFv (Asp229 and Arg234 lie in the VL); also called TSP7 (WT); TSP7 WT; not shown: His6, C-terminal, kept

stoichiometry N [1]: 0.61
stoichiometry N [10]: 0.71
stoichiometry N [2]: 0.61
Kd [3]: 14 nM
koff [3]: 0.0039 s⁻¹
kon [3]: 280000 M⁻¹ s⁻¹
binding result [4]: no binding
B4: TSP11 single-chain Fv (anti-human P-cadherin antibody) (scFv, V domains shown)
VH: QVQLQQPGTELVKPGASVKLSCKASGYTFTRYWINWVKQRPQGGLEWIGNIYPGSNITNYNEKFKNKATLTVDTSSNTAYMQLSSLTSDDSAVYYCAREGIYDGYFPLFPYWGQGTLVTVSA
VL: ENVLTQSPAIMAASPGEKVTMTCSASSSVSSGNFHWYQQKPGTSPKLWIYRTSNLASGVPARFSGSGSGTSYSLTISSMEAEDAATYYCQQWSGYPWTFGGGTKLEIK
notes: VH of TSP11; flexible (Gly4-Ser)3 peptide linker between VH and VL; VL of TSP11; Construct pelB-VH-GS-linker-VL-His6 in pRA2

Kd [8]: ~10 nM
binding result [9]: no binding
B5: TSP11 (anti-human P-cadherin antibody, scFv format) (scFv, V domains shown)
VH: B4 VH
VL: B4 VL
notes: VH of TSP11 (antibody from mice immunised with human P-cadherin EC1-EC5); flexible (Gly4-Ser)3 peptide linker; VL of TSP11; Construct pelB-VH-GS-linker-VL-His6 in pRA2; not shown: His6, C-terminal, kept

Further lines, the binder ahead of its results:

B2: TSP7 (anti-human P-cadherin antibody, scFv format) (scFv, V domains shown)
VH: B1 VH
VL: B1 VL
notes: VH of TSP7 (antibody from mice immunised with human P-cadherin EC1-EC5); flexible (Gly4-Ser)3 peptide linker; VL of TSP7; Construct pelB-VH-GS-linker-VL-His6 in pRA2; also called TSP7 WT; not shown: His6, C-terminal, kept
stoichiometry N [7]: 1.5
Kd [8]: ~10 nM
binding result [9]: no binding

B3: TSP7 S77R single-chain Fv (scFv, V domains shown)
VH: B1 VH with S77R
VL: B1 VL
notes: as the VH of Dm1 (TSP7, PDB 5JYL) with S77R; flexible (Gly4-Ser)3 peptide linker between VH and VL; as the VL of Dm1 (TSP7, PDB 5JYL); source: purified to homogeneity in a soluble monomeric form; not shown: His6, C-terminal, kept
Kd [5]: 0.53 nM
koff [5]: 0.00039 s⁻¹
kon [5]: 730000 M⁻¹ s⁻¹
Kd [6]: 71 nM
koff [6]: 0.032 s⁻¹
kon [6]: 450000 M⁻¹ s⁻¹
